Measurements taken from patent US10562947B2, “Compositions and methods for preventing or treating diseases, conditions or processes characterized by aberrant fibroblast proliferation and extracellular matrix deposition” (MOERAE MATRIX, INC., priority 2011, dated 2020).

Tests used:
Experiment in all cases: Kinase Profiling Assay
Format in all cases: biochemical
Conditions in all cases: 100 μM peptide
BrSK1(h) = biological target: T1, BrSK1(h) (Homo sapiens, UniProt Q8TDC3)
T1 sequence (Q8TDC3 1-778): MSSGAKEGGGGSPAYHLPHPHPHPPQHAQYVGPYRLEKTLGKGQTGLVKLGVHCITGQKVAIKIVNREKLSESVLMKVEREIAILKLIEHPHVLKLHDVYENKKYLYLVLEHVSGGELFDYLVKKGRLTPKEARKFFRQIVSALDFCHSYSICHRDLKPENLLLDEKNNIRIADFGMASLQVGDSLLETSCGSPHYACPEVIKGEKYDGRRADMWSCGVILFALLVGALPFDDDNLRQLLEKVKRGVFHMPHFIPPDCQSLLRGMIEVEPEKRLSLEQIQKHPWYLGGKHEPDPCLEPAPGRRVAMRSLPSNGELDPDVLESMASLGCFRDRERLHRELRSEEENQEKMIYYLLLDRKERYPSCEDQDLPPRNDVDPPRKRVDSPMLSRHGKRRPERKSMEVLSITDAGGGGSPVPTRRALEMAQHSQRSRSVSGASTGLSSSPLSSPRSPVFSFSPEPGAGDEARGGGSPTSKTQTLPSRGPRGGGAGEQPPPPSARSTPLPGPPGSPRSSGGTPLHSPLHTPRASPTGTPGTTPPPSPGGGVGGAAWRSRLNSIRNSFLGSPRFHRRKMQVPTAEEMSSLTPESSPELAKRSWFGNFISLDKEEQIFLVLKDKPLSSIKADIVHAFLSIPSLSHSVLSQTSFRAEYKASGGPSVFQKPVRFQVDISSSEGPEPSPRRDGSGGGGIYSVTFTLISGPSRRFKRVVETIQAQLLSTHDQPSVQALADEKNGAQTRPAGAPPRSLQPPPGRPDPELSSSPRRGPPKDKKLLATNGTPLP
In short: (§1)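 Specificity of the MK2-directed peptides is examined by measuring activity of 266 human kinases, every determination performed in duplicate.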

CaMKIδ(h) = CaMKIδ(h) (Homo sapiens, UniProt Q8IU85)
Chain of CaMKIδ(h) (Q8IU85 whole entry): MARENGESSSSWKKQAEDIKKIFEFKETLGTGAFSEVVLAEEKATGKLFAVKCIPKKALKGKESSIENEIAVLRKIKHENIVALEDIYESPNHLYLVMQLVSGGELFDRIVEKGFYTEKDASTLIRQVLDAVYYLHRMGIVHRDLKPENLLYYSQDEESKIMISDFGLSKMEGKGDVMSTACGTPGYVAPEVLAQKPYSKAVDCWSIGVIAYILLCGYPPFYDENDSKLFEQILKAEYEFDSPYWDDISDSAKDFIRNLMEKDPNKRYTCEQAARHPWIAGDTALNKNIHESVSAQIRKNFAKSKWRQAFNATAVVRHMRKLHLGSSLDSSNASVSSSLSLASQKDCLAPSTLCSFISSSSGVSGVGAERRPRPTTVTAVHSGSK
In short: as §1

DAPK1(h) = DAPK1(h) (Homo sapiens, UniProt P53355)
Chain of DAPK1(h) (P53355 whole entry): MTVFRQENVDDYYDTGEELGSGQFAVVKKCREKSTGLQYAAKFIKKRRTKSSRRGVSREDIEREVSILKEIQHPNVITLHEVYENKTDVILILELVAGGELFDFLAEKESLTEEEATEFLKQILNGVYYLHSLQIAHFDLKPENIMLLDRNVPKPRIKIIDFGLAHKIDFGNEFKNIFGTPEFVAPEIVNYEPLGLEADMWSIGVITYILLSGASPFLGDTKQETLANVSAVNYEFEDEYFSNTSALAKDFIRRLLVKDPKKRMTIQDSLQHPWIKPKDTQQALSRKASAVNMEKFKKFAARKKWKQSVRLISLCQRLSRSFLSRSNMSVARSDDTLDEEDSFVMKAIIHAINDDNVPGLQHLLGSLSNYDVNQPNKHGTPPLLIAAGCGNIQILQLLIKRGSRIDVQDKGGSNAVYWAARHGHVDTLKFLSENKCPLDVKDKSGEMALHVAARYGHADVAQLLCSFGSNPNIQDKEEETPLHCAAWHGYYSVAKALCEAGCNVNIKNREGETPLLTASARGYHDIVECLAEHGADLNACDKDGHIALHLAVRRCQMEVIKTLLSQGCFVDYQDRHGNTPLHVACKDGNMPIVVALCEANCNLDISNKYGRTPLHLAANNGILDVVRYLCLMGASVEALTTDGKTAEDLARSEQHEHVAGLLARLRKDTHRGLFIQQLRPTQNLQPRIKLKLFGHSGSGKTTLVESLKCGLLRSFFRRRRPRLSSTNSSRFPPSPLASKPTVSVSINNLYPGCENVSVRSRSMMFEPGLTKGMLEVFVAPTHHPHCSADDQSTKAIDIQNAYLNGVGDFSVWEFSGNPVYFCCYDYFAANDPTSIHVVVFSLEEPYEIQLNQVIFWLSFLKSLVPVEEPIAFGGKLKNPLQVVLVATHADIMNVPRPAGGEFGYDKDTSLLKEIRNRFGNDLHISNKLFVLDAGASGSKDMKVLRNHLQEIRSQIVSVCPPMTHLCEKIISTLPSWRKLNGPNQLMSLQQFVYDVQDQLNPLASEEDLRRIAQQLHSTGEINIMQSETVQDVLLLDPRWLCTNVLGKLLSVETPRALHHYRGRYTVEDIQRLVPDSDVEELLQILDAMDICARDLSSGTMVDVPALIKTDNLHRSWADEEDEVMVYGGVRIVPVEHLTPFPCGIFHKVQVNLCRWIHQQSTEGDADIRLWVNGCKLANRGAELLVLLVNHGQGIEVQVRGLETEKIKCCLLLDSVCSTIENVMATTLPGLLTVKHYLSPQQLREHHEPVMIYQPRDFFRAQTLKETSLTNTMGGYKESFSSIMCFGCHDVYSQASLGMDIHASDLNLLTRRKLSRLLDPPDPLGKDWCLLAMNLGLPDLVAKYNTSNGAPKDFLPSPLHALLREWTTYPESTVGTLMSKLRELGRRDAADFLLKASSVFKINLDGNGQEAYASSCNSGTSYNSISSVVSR
In short: as §1

EGFR(h) = EGFR(h) (Homo sapiens, UniProt P00533)
In short: as §1

GRK7(h) = biological target: T2, GRK7(h) (Homo sapiens, UniProt Q8WTQ7)
T2 construct: purchased Millipore
T2 sequence (Q8WTQ7 1-553): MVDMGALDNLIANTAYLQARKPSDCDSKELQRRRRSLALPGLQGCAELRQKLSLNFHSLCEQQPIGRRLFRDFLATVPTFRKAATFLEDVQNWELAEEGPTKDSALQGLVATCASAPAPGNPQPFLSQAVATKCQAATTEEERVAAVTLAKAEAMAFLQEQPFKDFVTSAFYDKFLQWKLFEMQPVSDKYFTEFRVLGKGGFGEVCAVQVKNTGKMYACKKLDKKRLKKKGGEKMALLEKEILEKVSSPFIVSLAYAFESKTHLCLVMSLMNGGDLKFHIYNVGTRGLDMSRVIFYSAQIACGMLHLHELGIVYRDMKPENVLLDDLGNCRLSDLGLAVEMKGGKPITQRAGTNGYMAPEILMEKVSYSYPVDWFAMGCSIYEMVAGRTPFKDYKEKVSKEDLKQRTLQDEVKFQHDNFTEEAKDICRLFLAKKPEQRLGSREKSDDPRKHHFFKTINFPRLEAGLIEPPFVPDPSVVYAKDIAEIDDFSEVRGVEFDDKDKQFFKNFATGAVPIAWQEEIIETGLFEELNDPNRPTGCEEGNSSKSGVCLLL
In short: as §1

NEK7(h) = NEK7(h) (Homo sapiens, UniProt Q8TDX7)
Chain of NEK7(h) (Q8TDX7 whole entry): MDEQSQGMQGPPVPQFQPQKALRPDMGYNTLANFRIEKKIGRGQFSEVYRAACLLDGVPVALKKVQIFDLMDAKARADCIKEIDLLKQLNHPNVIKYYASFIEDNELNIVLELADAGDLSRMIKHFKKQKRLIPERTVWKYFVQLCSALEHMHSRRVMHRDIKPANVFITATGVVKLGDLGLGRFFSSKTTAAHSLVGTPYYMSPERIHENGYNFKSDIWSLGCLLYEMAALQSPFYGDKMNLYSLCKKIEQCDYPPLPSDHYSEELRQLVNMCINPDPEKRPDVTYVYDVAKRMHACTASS
In short: as §1

SAPK2a(T106M)(h) = SAPK2a(T106M)(h) (Homo sapiens, UniProt Q16539, T106M)
Chain of SAPK2a(T106M)(h) (Q16539 whole entry T106M): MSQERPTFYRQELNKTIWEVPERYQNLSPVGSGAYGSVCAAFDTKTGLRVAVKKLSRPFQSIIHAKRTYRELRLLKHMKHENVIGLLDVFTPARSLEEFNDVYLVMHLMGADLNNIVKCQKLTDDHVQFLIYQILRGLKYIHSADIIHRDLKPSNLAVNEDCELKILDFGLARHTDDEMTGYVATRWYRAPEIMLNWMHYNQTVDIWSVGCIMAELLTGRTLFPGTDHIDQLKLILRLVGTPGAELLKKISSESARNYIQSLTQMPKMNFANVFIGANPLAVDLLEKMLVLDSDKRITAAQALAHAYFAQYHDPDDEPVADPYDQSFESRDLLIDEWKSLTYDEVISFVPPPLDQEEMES
In short: as §1

ZAP-70(h) = biological target: T3, ZAP-70(h) (Homo sapiens, UniProt P43403)
T3 sequence (P43403 1-619): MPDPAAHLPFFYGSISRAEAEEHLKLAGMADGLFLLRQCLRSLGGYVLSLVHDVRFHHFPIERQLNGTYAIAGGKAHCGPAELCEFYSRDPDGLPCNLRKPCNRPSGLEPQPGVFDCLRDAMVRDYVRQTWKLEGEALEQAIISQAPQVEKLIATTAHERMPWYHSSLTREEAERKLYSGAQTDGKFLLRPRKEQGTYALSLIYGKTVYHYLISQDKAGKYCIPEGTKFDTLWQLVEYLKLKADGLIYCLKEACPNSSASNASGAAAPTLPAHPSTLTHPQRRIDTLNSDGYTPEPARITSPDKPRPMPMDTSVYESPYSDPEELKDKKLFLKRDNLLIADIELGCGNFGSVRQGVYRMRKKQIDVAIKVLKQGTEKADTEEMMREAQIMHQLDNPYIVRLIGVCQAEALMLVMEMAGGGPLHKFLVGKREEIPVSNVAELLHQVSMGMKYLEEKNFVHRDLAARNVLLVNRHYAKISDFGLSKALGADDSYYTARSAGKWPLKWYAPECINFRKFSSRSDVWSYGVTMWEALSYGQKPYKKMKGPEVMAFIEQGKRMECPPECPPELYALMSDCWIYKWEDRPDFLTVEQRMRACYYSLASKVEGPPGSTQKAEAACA
In short: as §1

Sequence	BrSK1(h) % activity (BrSK1(h))	CaMKIδ(h) % activity (CaMKIδ(h))	DAPK1(h) % activity (DAPK1(h))	EGFR(h) % activity (EGFR(h))	GRK7(h) % activity (GRK7(h))	NEK7(h) % activity (NEK7(h))	SAPK2a(T106M)(h) % activity (SAPK2a(T106M)(h))	ZAP-70(h) % activity (ZAP-70(h))
HRRIKAWLKKIKALARQLGVAA (Mammalian) [MMI-0500]	72%	0%	0%	−1%	93%	89%	32%	1%
FAKLAARLYRKALARQLGVAA [MMI-0300]	67%	10%	46%	21%	122%	84%	97%	75%
YARAAARQARAKALNRQLGVA (Mammalian) [MMI-0200]	93%	47%		83%	124%	96%	100%	58%
KAFAKLAARLYRKALARQLGVAA [MMI-0400]	76%	17%	36%	16%	100%	87%	99%	33%
